Results: US20140017790A1, “CONTROL AGENT FOR CONTROLLING UNDIFFERENTIATED STATE AND USE THEREOF” (RIKEN, priority 2011, published 2014)

Key:
Format in all cases: cell-based
AKT = assay: Western blotting, phosphorylation of AKT in mouse iPS cells; details: CCL2 overexpressed, relative to negative control
Description: The mouse iPS cells transfected with the Ccl2 expression vector were cultured for 24 hours in the same manner as in Example 1. After the culture, the mouse iPS cells were washed with PBS, and then were suspended in 100 μl of a mammalian m-PER lysis buffer. The suspension was passed through a 26-gauge needle for 10 minutes to homogenize the cells. Then, the suspension was centrifuged at 13,000 rpm and 4° C. for 5 minutes, and the supernatant was collected. The protein concentration in the supernatant was measured using a Pierce (registered trademark) BCA Protein assay (trade name, Thermo Scientific). Next, the supernatant was subjected to Western blotting to detect a target protein. Specifically, first, the supernatant (total protein: 10 μg) was applied to a Novex Gel electrophoresis system with 4%-12% Bis-Tris gels, and was blotted on a nitrocellulose membrane. Then, the membrane was incubated with a primary antibody against the target protein. After washing the membrane, the membrane was incubated with a labeled secondary antibody labeled with horseradish peroxidase, and a color-developing reaction was caused using a coloring reagent (trade name: ECL plus, GE Healthcare). Then, luminescence on the membrane was detected using a Fuji LAS-3000 luminescent image analyzer. […]

mouse ES cells = assay: quantitative RT-PCR of undifferentiated marker genes in mouse ES cells; details: LIF 1000 units/ml, CCL2 500 ng/ml
Description: A PrimeScript RT-PCR Kit (trade name, TAKARA BIO INC.), an ABI 7500 Fast real time PCR system (trade name, Applied BioSystems), and a SYBR (registered trademark) Premix Ex Taq (trade name, TAKARA BIO INC.) were used in accordance with their protocols. PCR was carried out by conducting 40 cycles of treatment with a treatment at 94° C. for 5 second and at 62.5° C. for 20 seconds as 1 cycle. The expression level of each gene was calculated by normalizing the relative amount of mRNA in the gene to Gapdh mRNA according to the 2^−ΔΔ^CT method (Thomse R, Solvsten C A, Linnet T E, et al., Analysis of qPCR data by converting exponentially related Ct values into linearly related XO values. J Bioinform Comput Biol 2010: 8: 885-900.).
[…] Furthermore, as a negative control, the expression levels of the undifferentiated marker genes were determined in the same manner regarding the mouse ES […] Then, the fold changes in the expression level relative to the negative control were calculated.
FIG. […] The vertical axis indicates the fold change (-fold), and the horizontal axis indicates the examined undifferentiated marker genes. […] In the former case (open bar), the concentration of the LIF in the medium was 1000 units/ml and the concentration of the CCL2 in the medium was 500 ng/ml. […]

human iPS cells [1] = assay: phase-contrast morphology of human iPS cells with JAK or PI3K inhibitor; details: inhibitor not added (DMSO added), 6 days; bFGF(+)/CCL2(-) or bFGF(-)/CCL2(+)
Description: As a JAK inhibitor, a JAK inhibitor I (Merck) was used. As PI3K inhibitor, the same LY294002 as used in Example 4 was used. Human iPS cells were cultured for 6 days under feeder conditions in the same manner as in the above item (1), except that not only the CCL2 but also the JAK inhibitor or the PI3K inhibitor further was added to the medium. In the medium, the concentration of the Jak inhibitor was set to 10 ng/ml, and the concentration of the PI3K inhibitor was set to 5 ng/ml.
Furthermore, as a control, the cells were cultured in the same manner as in the above using the following media, respectively: a medium containing bFGF instead of the CCL2 and containing DMSO (5 ng/ml) instead of the inhibitor; and a medium containing bFGF (5 ng/ml) instead of the CCL2 and containing the inhibitor.
The phase-contrast micrographs show the results obtained under the conditions of, from the above: the inhibitor not added (DMSO added); the JAK inhibitor added; and the PI3K inhibitor added.

human iPS cells [2] = assay: EB formation and spontaneous differentiation, cell morphology; details: third day from the plating; iPS cells precultured 6 days with the substance
Description: Human iPS cells were cultured for 6 days under feeder conditions in the same manner as in Example 7. Thereafter, embryonic bodies (EBs) were produced. EB formation is known as a spontaneous differentiation-inducing method for inducing the differentiation of iPS cells. Specifically, first, a ROCK inhibitor (Y-27632, WAKO) was added to the culture solution being used for the culture of the human iPS cells so that the concentration thereof was […], and the human iPS cells were cultured for 1 hour under the conditions of 37° C. and 5% CO2. Then, the feeder cells used for the culture were dissociated with a human ES/iPS cell dissociation solution (CTK solution), and the human iPS cells were collected. Then, 1×10^6 of the human iPS cells were seeded in an ultra-low adhesion culture vessel, and cultured for 6 days in an EB preparation medium (DMEM/F12, Knockout SR, L-glutamine, NEAA (non-essential amino acid (GIBCO)), 2-ME, Pen/Strep). The medium was replaced every two days.
Next, spontaneous differentiation was induced. Specifically, the produced EBs were seeded in gelatin coated dishes so that each gelatin coated dish contained one EB. Each EB was cultured for 14 days in a medium (DMEM) containing 20% FBS, and then observed with a microscope. The medium was replaced every two days. The photographs in FIG. 18 show the cell morphology on the third day from the plating.

B1: CCL2: mouse recombinant CCL2 (MCP-1, #479-JE-010, R&D Systems); in Examples 1, 3, 4(1), 5 mouse CCL2 (SEQ ID NO: 3) overexpressed from Ccl2 expression vector (protein, listed as Mus musculus)
chain: MQVPVMLLGLLFTVAGWSIHVLAQPDAVNAPLTCCYSFTSKMIPMSRLESYKRITSSRCPKEAVVFVTKLKREVCADPKKEWVQTYIKNLDRNQMRSEPTTLFKTASALRSSAPLNVKLTRKSEANASTTFSTTTSSTSVGVTSVTVN
In the case of B1, the “phosphorylation of AKT (pAKT/AKT)” value (AKT) is reported as “not promoted”, the “expression of the Klf4 gene, fold change relative to negative control” value (mouse ES cells) is reported as “increased markedly” and the “expression of the Tbx3 gene, fold change relative to negative control” value (mouse ES cells) is reported as “increased markedly”. For the same molecule, the “undifferentiation potency, cell morphology” value (human iPS cells [1]) was “little differentiated cells” and the “morphology of EB after spontaneous differentiation-inducing culture” value (human iPS cells [2]) was “ES cell-like morphology”.
